Columns and labels:
[1] = target: human FOLR1 (recombinant antigen) (human) (UniProt P15328); experiment: ELISA on hFOLR1
FOLR1 on OVCAR3 cells = FOLR1 on OVCAR3 cells (UniProt P15328); experiment: cell binding to FOLR1-positive OVCAR3 cells
[2] = target: human FOLR1 (recombinant antigen) (human) (UniProt P15328); experiment: BLI (Octet), construct captured on AHC biosensor, hFOLR1 as analyte
[3] = target: FOLR1 on cells (OVCAR3, OV-90) (UniProt P15328); experiment: flow cytometry on FOLR1 expressing OV-90 cells, Geomeans RL1-H against Conc (nM) [top panel]
Sequence of FOLR1 on cells (OVCAR3, OV-90) (P15328 25-234): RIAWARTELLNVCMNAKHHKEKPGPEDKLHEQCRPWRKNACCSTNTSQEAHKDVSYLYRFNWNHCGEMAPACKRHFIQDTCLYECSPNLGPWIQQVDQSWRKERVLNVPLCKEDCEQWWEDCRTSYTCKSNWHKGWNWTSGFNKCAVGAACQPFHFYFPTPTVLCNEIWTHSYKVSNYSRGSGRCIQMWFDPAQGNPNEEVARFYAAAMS

Sequence of FOLR1 on OVCAR3 cells (P15328 25-234): as above
Sequence of human FOLR1 (recombinant antigen) (human) (P15328 25-234 limits assumed): as the sequence (P15328 25-234) above

EC50 [1] [nM]	EC50 (FOLR1 on OVCAR3 cells) [nM]	Kd [2] [nM]	koff [2] [s⁻¹]	kon [2] [M⁻¹ s⁻¹]	EC50 (read off the curve) [3] [nM]	Binder
0.14	0.81	2.85	0.000853	299000		Anti-FOLR1x4 GGSx4 (monospecific tetravalent VHH-VHH-Fc) (antibody, part only; not given: hinge and wild-type Fc, not shown: a dimerising Fc or GST) chain, part: QVQLVESGGGLVQPGGSLRLSCAASGFTVSNSVMAWYRQTPGNEREFVAIINSIGITNYADSVKGRFTISRDNSKNTLYLQMNSLRAEDTAVYVCNRNFDRIYWGQGTLVTVSSGGSGGSGGSGGSQVQLVESGGGLVQPGGSLRLSCAASGFTVSNSVMAWYRQTPGNEREFVAIINSIGITNYADSVKGRFTISRDNSKNTLYLQMNSLRAEDTAVYVCNRNFDRIYWGQGTLVTVSS
0.12	0.71				2	Farletuzumab (antibody, INN chains, looked up, V domains shown) VH: EVQLVESGGGVVQPGRSLRLSCSASGFTFSGYGLSWVRQAPGKGLEWVAMISSGGSYTYYADSVKGRFAISRDNAKNTLFLQMDSLRPEDTGVYFCARHGDDPAWFAYWGQGTPVTVSS VL: DIQLTQSPSSLSASVGDRVTITCSVSSSISSNNLHWYQQKPGKAPKPWIYGTSNLASGVPSRFSGSGSGTDYTFTISSLQPEDIATYYCQQWSSYPYMYTFGQGTKVEIKR
0.11	0.49	2.52	0.00087	345000		Anti-FOLR1x4 GGSx3 (monospecific tetravalent VHH-VHH-Fc) (antibody, part only; not given: hinge and wild-type Fc, not shown: a dimerising Fc or GST) chain, part: QVQLVESGGGLVQPGGSLRLSCAASGFTVSNSVMAWYRQTPGNEREFVAIINSIGITNYADSVKGRFTISRDNSKNTLYLQMNSLRAEDTAVYVCNRNFDRIYWGQGTLVTVSSGGSGGSGGSQVQLVESGGGLVQPGGSLRLSCAASGFTVSNSVMAWYRQTPGNEREFVAIINSIGITNYADSVKGRFTISRDNSKNTLYLQMNSLRAEDTAVYVCNRNFDRIYWGQGTLVTVSS
0.12	0.28	2.86	0.000953	333000		Anti-FOLR1x4 GGGGSx3 (monospecific tetravalent VHH-VHH-Fc) (antibody, part only; not given: hinge and wild-type Fc, not shown: a dimerising Fc or GST) chain, part: QVQLVESGGGLVQPGGSLRLSCAASGFTVSNSVMAWYRQTPGNEREFVAIINSIGITNYADSVKGRFTISRDNSKNTLYLQMNSLRAEDTAVYVCNRNFDRIYWGQGTLVTVSSGGGGSGGGGSGGGGSQVQLVESGGGLVQPGGSLRLSCAASGFTVSNSVMAWYRQTPGNEREFVAIINSIGITNYADSVKGRFTISRDNSKNTLYLQMNSLRAEDTAVYVCNRNFDRIYWGQGTLVTVSS

From patent US20260137822A1
